For test [1], the target named is RSV-F protein (as used in the D25 competition binding assay) (respiratory syncytial virus, strain not stated). Put plainly: competition ELISA on infected cells against biotin-labeled D25 at 100 ng/ml constant, A450 [cont'd) D].
The target in test [2] is RSV A2 F protein on untreated cells (pre-fusion form) (Human respiratory syncytial virus, strain A2) (UniProt P03420).
In test [3] the target is HR1 construct containing amino acids 153-221 of RSV A2 F protein (Human respiratory syncytial virus, strain A2).
Test [4] has as its target SK-epitope: amino acids 195-228 of RSV A2 F protein (C212S) in the inhibitor loop of Ecballium elate (Human respiratory syncytial virus, strain A2 (insert); Ecballium elaterium (scaffold)).
In test [5] the target is RSV-B F protein from strain 18537 (wild type) (Human respiratory syncytial virus, strain 18537 (subtype B)) (UniProt P13843).
Test [6] deals with RSV-F protein (as used in the D25 competition binding assay) (respiratory syncytial virus, strain not stated).
Test [7] has as its target RSV A2 F protein on untreated cells (pre-fusion form) (Human respiratory syncytial virus, strain A2) (UniProt P03420). Put plainly: cell-based or functional assay.
Test [8] has the same target. This is another data set of the same source.
Test [9] deals with MARM B1 F protein (RSV B 18537 F, N201D) (Human respiratory syncytial virus, D25-resistant mutant of strain 18537) (UniProt P13843).
The target of test [10] is RSV-B F protein from strain 18537 (wild type) (Human respiratory syncytial virus, strain 18537 (subtype B)) (UniProt P13843). The source holds these as a separate data set.
Test [11] addresses MARM B2 F protein (RSV B 18537 F, L204V) (Human respiratory syncytial virus, D25-resistant mutant of strain 18537) (UniProt P13843).
Test [12] concerns the target MARM B1 F protein (RSV B 18537 F, N201D) (Human respiratory syncytial virus, D25-resistant mutant of strain 18537) (UniProt P13843). Put plainly: cell-based or functional assay.
The target in test [13] is RSV-B F protein from strain 18537 (wild type) (Human respiratory syncytial virus, strain 18537 (subtype B)) (UniProt P13843). Description: cell-based or functional assay.
The target of test [14] is MARM A1 F protein (RSV A2 F, N208Y) (Human respiratory syncytial virus, D25-resistant mutant of strain A2) (UniProt P03420). Put plainly: cell-based or functional assay.
In test [15] the target is MARM B2 F protein (RSV B 18537 F, L204V) (Human respiratory syncytial virus, D25-resistant mutant of strain 18537) (UniProt P13843). Description: cell-based or functional assay.
Test [16] deals with MARM A1 F protein (RSV A2 F, N208Y) (Human respiratory syncytial virus, D25-resistant mutant of strain A2) (UniProt P03420).
The target of test [17] is MARM B2 F protein (RSV B 18537 F, L204V) (Human respiratory syncytial virus, D25-resistant mutant of strain 18537) (UniProt P13843). The source holds these as a separate data set.
The target in test [18] is MARM A1 F protein (RSV A2 F, N208Y) (Human respiratory syncytial virus, D25-resistant mutant of strain A2) (UniProt P03420). This is another data set of the same source.
Test [19] concerns the target MARM B1 F protein (RSV B 18537 F, N201D) (Human respiratory syncytial virus, D25-resistant mutant of strain 18537) (UniProt P13843). The source holds these as a separate data set.

Where two headings read alike, the source gives them in different places. Bounds are passed on as bounds.

Turning to anti-RSV-F antibody AM22, in test [1], the IC50 (read off the curve) is 2 µg/mL.
One may read the Kd as the equilibrium constant for the complex coming apart. Low values mean higher affinity, high ones lower affinity. With monoclonal antibody D25, the IC50 (read off the curve) came out at 10 µg/mL in test [2], 0.07 µg/mL in test [5], 0.6 µg/mL in [6] and 0.1 µg/mL in [8]. The Kd in [3] came to 1.9 nM; in test [4], 0.0585 nM. This substance came in with an RSV microneutralization assay (antibody concentration able to neutralize) in test [7] of 1 µg/mL.
Take motavizumab (antibody): the IC50 (read off the curve) is 0.06 µg/mL in [9], 0.1 µg/mL in test [10], 0.04 µg/mL in test [11] and 0.1 µg/mL in [16]. Besides, the RSV microneutralization assay (antibody concentration able to neutralize) in test [12], in test [13], in [14] and in test [15] was less than 100 ng/mL in each case.
Regarding palivizumab (antibody), the IC50 (read off the curve) in [17] is 300 µg/mL; in test [18], 40 µg/mL; in [19], 200 µg/mL. Further, the RSV microneutralization assay (antibody concentration able to neutralize) in [12], in test [14] and in test [15] was 100000 ng/mL in each case.

The values are drawn from patent publication US20150366960A1.
